Literature values as cited in US20150050259A1, “NUTRACEUTICAL MODULATORS OF STEM CELL ACTIVITY” (Creative Medical Health Inc., priority 2011, published 2015).

B1: G-CSF: Granulocyte colony stimulating factor, cytokine drug used for neutropenia and mobilization of hematopoietic stem cells (protein, UniProt P09919 31-207, looked up)
Granulocyte …: TPLGPASSLPQSFLLKCLEQVRKIQGDGAALQEKLVSECATYKLCHPEELVLLGHSLGIPWAPLSSCPSQALQLAGCLSQLHSGLFLYQGLLQALEGISPELGPTLDTLQLDVADFATTIWQQMEELGMAPALQPTQGAMPAFASAFQRRAGGVLVASHLQSFLEVSYRVLRHLAQP

What was measured:
[1] = patients after intensive chemotherapy
[2] = acute stroke patients
[3] = stroke patients
[4] = 114 patients, 56 treated and 58 control
[5] = 2.5, 5, or 10 μg/kg G-CSF for 5 consecutive days
[6] = between baseline and 12-month follow-up

Molecule	abnormal growth or acromegaly after treatment [1]	recovery of platelets to 25×10(9)/l, median time ([1]; P=0.03 versus placebo)	increase of CD34s over normal (subcutaneous G-CSF)	safety of administration (subcutaneous G-CSF 10 μg/kg for 6 days, revascularized STEMI patients)	increase in the leukocyte count [2, 5]	mobilization of CD34(+) cells [2, 5]	G-CSF toxicity in neuroradiological and neuropsychological follow-up [2]	BI: change in the mean group score [3, 6]	EMS: change in the mean group score [3, 6]	ESS: change in the mean group score [3, 6]	NIHSS: change in the mean group score [3, 6]	adverse effects as a result of treatment [3]	influence on infarct size, left ventricular function, or coronary restenosis [4]
GH: growth hormone, a 191-amino acid, single chain polypeptide hormone naturally produced by the anterior pituitary	no abnormal growth or acromegaly was observed	16 days	–	–	–	–	–	–	–	–	–	–	–
B1	–	–	20 fold	safe	up to 75,500 /μl	Mobilization of CD34(+) cells was observed	did not disclose any specific G-CSF toxicity	120%	106%	33%	59%	no serious adverse effects	no influence on infarct size, left ventricular function, or coronary restenosis
